# Measurements reported in patent US20250276077A1 (IMMUNOME, published 2025).
# Changes are numbered by the printed parent chain.
# B1: AB-010358 (antibody, mouse IgG2a, V domains shown)
# VH: QVQLQQWGAGLLKPSETLSLTCAVYGGSFSDYYWSWIRQPPGKGLEWIGEINHRGSINYNNYNPSLKSRVTISVDTSKNQFSLKLSSVTAADTAVYYCAKPLRPHCTNGVCYSGDAFDIWGQGTMVTVAS
# VL: SYVLTQPPSVSVAPGQTARITCGGNNIGSKNVHWYQQKPGQAPVLVVYDDSDRPSGIPERFSGSNSGNTATLTISRVEAGDEADYYCQVWDSSSDHLVFGGGTKLTVL
# B2: AB-010359 (antibody, V domains shown)
# VH: B1 VH
# VL: B1 VL with L97V
# B3: AB-010367 (antibody, V domains shown)
# VH: B1 VH with D31G, R54Q
# VL: B1 VL with L97V
# B4: AB-010366 (antibody, mouse IgG2a, V domains shown)
# VH: B1 VH with D31G, R54Q
# VL: B1 VL with R60Q, L97V
# B5: AB-010360 (antibody, mouse IgG2a, V domains shown)
# VH: B1 VH with D31G
# VL: B1 VL with R60Q
# B6: AB-010364 (antibody, mouse IgG2a, V domains shown)
# VH: B1 VH with D31G, R54A
# VL: B1 VL with R60Q, L97V
# B7: AB-010362 (antibody, mouse IgG2a, V domains shown)
# VH: B1 VH with D31G
# VL: B1 VL
# B8: AB-010365 (antibody, V domains shown)
# VH: B1 VH with D31G, R54A
# VL: B1 VL with L97V
# B9: AB-010692 (antibody, V domains shown)
# VH: B1 VH with D31G
# VL: B1 VL with G23R, S92H, L97V
# B10: AB-010690 (antibody, V domains shown)
# VH: B1 VH with D31G
# VL: B1 VL with G23R, S29Y, L97V
# B11: AB-010689 (antibody, V domains shown)
# VH: B1 VH with D31G, T107I
# VL: B1 VL with G23R, L97V
# B12: AB-010686 (antibody, V domains shown)
# VH: B1 VH with D31G
# VL: B1 VL with R60Q, S93R, L97V
# B13: AB-010691 (antibody, V domains shown)
# VH: B1 VH with D31G
# VL: B1 VL with G23R, K30M, L97V
# B14: AB-010688 (antibody, V domains shown)
# VH: B1 VH with D31G
# VL: B1 VL with S29Y, R60Q, S93E, L97V
# B15: AB-010687 (antibody, V domains shown)
# VH: B1 VH with D31G
# VL: B1 VL with R60Q, S93E, L97V
# Target: T1, Human EphA2 (ephrin receptor A2) on cells (human, UniProt P29317 25-976)
# T1 sequence (P29317 25-976): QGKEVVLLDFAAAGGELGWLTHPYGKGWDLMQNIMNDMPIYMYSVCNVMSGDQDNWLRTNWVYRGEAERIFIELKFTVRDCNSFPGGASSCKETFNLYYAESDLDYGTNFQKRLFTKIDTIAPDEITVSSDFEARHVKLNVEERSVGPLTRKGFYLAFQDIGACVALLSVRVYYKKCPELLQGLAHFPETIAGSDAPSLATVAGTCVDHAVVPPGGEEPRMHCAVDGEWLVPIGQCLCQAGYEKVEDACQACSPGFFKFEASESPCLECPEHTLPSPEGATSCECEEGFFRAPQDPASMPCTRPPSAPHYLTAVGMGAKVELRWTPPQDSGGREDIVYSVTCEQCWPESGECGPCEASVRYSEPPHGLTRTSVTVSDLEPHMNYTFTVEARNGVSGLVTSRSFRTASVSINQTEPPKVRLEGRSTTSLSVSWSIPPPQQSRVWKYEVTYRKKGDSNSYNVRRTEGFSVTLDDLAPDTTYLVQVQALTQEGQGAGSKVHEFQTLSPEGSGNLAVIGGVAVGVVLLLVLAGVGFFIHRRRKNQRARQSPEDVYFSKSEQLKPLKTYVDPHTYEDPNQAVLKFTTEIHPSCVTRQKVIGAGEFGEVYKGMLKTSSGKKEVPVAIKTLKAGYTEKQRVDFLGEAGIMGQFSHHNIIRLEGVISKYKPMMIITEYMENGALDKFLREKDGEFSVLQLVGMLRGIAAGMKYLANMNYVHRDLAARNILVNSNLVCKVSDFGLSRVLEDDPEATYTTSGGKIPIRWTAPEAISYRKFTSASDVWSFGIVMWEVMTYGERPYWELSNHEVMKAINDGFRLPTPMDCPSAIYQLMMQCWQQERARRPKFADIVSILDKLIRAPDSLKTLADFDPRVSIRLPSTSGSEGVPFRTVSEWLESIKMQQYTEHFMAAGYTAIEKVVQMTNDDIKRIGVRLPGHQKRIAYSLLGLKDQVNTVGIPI
# Assay: cell-based or functional assay
Binder,ADCC EC50,ADCC Fold-improved (against AB-008873)
B1,73.3 nM,0.47 fold
B2,25.3 nM,1.38 fold
B3,42.7 nM,0.81 fold
B4,28.9 nM,1.2 fold
B5,4.3 nM,8.09 fold
B6,14.5 nM,2.4 fold
B7,12.8 nM,2.72 fold
B8,34.6 nM,1.01 fold

# Target: T1, Human EphA2 (ephrin receptor A2) on …
# Assay: cell-based or functional assay
# Remark: another data set of the same source
Binder,"ADCC - EC50 (nM), Trial 1, A549","ADCC - EC50 (nM), Trial 2, A549"
B9,0.21 nM,–
B10,0.19 nM,–
B11,2.5 nM,–
B12,6.4 nM,–
B13,2.2 nM,–
B14,~0.052 nM,0.032 nM
B15,2.8 nM,–
